Measurements reported in patent US20130164299A1 (CENTRE NATIONAL DE LA RECHERCHE SCIENTIFIQUE, published 2013).

T1: CLEC2A-Fc protein (UniProt Q6UVW9 49-174)
T1 construct: Negative control coat in the ELISA; not shown: Fc portion recognised by anti-human Ig
T1 sequence (looked up): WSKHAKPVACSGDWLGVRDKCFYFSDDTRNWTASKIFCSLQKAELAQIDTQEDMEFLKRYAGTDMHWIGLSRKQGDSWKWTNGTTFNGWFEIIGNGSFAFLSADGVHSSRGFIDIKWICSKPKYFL

T2: AICL, expressed on transfected 293T cells (UniProt Q92478 1-149, limits assumed)
T2 construct: whole, on cells; also called AICL-transfectants
T2 sequence (looked up): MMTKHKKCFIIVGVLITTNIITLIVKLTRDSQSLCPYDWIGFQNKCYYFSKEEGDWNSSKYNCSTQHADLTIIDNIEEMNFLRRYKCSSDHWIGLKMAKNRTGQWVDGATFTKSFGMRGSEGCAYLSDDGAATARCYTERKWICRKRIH

T3: LLT1-Fc fusion protein (human, UniProt Q9UHP7 60-191, limits assumed)
T3 construct: also called LLT1-hFc; LLT-Fc; not shown: human Fc (hFc)
T3 sequence: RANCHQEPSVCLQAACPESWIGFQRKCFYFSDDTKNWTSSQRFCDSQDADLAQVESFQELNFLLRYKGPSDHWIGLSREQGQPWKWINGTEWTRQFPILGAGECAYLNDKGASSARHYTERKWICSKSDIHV

T4: lectin-like transcript 1 (LLT1), recombinantly expressed on cells (human, UniProt Q9UHP7 1-191)
T4 construct: In the Western blot the protein stood in cell extracts, in the IHC validation in fixed cells; also called CLEC2D; C1R-LLT1 transfectants
T4 sequence: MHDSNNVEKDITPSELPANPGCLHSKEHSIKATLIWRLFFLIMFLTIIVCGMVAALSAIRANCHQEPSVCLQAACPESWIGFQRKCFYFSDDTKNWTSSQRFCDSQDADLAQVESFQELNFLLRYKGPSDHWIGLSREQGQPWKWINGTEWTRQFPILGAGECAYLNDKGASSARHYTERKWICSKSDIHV


Legend:
CLEC2A-Fc protein = target: T1, CLEC2A-Fc protein; experiment: ELISA, coated Fc fusion protein
Description: Anti-LLT12F1A5 and anti-LLT14F were compared to mAb's 4C7 and MAB3480 with respect to binding to CLEC2D (LLT1) fusion proteins in the ELISA application. Wells were coated with Fc fusion proteins representing full-length CLEC2D or splice variant 2 and 4 hereof (CLEC2D-iso2 and -iso4, respectively). Full-length CLEC2D contains exons 1, 2, 3, 4a and 5, whereas isoforms 2 and 4 contain exons 1, 2, 3, 4a, 4b, 5 and exons 1, 2, 3, 5, respectively. Coated wells were incubated with anti-LLT12F1A5, anti-LLT14F, MAB3480 or 4C7 antibodies. Wells not coated with protein (PBS) or coated with CLEC2A-Fc protein were included as negative controls. Antibody binding was detected by HRP-conjugated anti-mouse Ig secondary antibody and chromogen. HRP-conjugated anti-human Ig antibody was included as a positive control that recognized the Fc portion of both fusion proteins.

[1] = target: T2, AICL, expressed on transfected 293T …; experiment: flow cytometry on 293T cells transfected with AICL
LLT1-Fc fusion protein [2] = target: T3, LLT1-Fc fusion protein; experiment: SPR (Biacore T100, 25 °C); LLT1-Fc immobilised on CM5 chip (500 RU), antibody 3.125 to 100 nM in solution
Description: Surface plasmon resonance measurements were performed on a Biacore T100 apparatus (Biacore) at 25° C. In all Biacore experiments, HBS buffer supplemented with 0.05% surfactant P20 served as running buffer and sensorgrams were analyzed with Biaevaluation software. Recombinant LLT1-Fc fusion protein (described by Aldemir et al in Journal of Immunology, 2005 vol. 176: 7791-7795) were immobilized covalently to carboxyl groups in the dextran layer on a Sensor Chip CM5 (Biacore). The sensor chip surface was activated with EDC/NHS(N-ethyl-N′-(3-dimethylaminopropyl) carbodiimidehydrochloride and N-hydroxysuccinimide, Biacore). Proteins diluted in coupling buffer (10 mM acetate, pH 4.5) were injected. Deactivation of the remaining activated groups was performed using 100 mM ethanolamine pH 8 (Biacore).
Anti-LLT12F1A5 was tested in a range of concentrations from 3.125 to 100 nM for binding to immobilized LLT1-Fc protein (500 RU).

[3] = target: T4, lectin-like transcript 1 (LLT1), …; experiment: flow cytometry on C1R-LLT1 transfectants, anti-mouse IgG secondary antibody
Description: (§1) C1R-LLT1 transfectants and parental C1R cells were washed in PBS containing 1% FCS and incubated with anti-LLT14F or anti-LLT14F-hIgG4 antibody at concentrations 0.0003-10 μg/ml as indicated in FIG. 4 for 30 min at 4° C. followed by incubation with fluorochrome-conjugated anti-mouse or anti-human IgG secondary antibodies, respectively. Samples were washed three times in PBS containing 1% FCS and analysed by flow cytometry.

LLT1-Fc fusion protein [4] = target: T3, LLT1-Fc fusion protein; experiment: blocking assay by flow cytometry: binding of LLT1-Fc multimers to CD161 on 293T-CD161 cells in the presence of the antibody
Description: A multimeric complex was generated by incubating the LLT1-Fc fusion protein with biotinylated protein A (Pierce) at a molar ratio of 1:1. Saturating amounts of purified hIgG were added to block the remaining free protein A sites. A multimer control was generated using protein A-biotin saturated with purified hIgG. These complexes were conjugated to streptavidin-allophycocyanin (BD Biosciences). […] Anti-LLT14F (4F) or control IgG1 (ctrl IgG1) was added at concentrations 0.01-200 μg/ml. For comparison, anti-LLT12F1 (2F1A5) and AF3480 were tested in parallel with 4F in this assay. Binding of LLT1-multimers was evaluated by flow cytometry.

[5] = target: T4, lectin-like transcript 1 (LLT1), …; experiment: flow cytometry on C1R-LLT1 transfectants, anti-human IgG secondary antibody
Description: as §1

binding result (CLEC2A-Fc protein)	binding result [1]	Kd (LLT1-Fc fusion protein [2]) [nM]	EC50 (read off the curve) [3] [µg/mL]	IC50 (read off the curve) (LLT1-Fc fusion protein [4]) [µg/mL]	EC50 (read off the curve) [5] [µg/mL]	Binder
no binding	no binding	1.24				anti-LLT12F1A5 (antibody, mouse IgG1, V domains shown, also called anti-LLT2F1; anti-LLT2F1A5) VH: EVQLQQSGAELVRSGASVKLSCTASGFNIKDYYMHWVKQRPEQGLEWIGWIDPENGDTEYAPKFQGKATVTADTSSNTVYLQLSSLTSEDTAVYYCNGEIITTTAWFTYWGQGTLVTVSA VL: not shown
no binding	no binding		~0.04	~6		anti-LLT14F (antibody, mouse IgG1, V domains shown, also called anti-LLT14F68; anti-LLT1-4F68) VH: EVQLVESGGGLVQPGGSLKLSCAASGFTVSSYGMSWVRQIPDKRLELVATINSNGGRTFYPDSVKGRFTISRDNAQNTLYLQMSSLKSEDTAMYYCARDGGYWAHFDYWGQGTTLTVSS VL: DVLMTQTPLSLPVSLGDQASISCRSSQSIVHSNGNTYLEWYLQKPGQSPKLLIYKVSNRFSGVPDRFSGSGSGTDFTLKISRVEAEDLGVYYCFQGSHVPWTFGGGTKLEIKR
					~0.05	anti-LLT14F-hIgG4 (antibody, V domains shown, Murine variable domains of anti-LLT14F on human kappa/IgG4 scaffold; also called chimeric mouse/human anti-LLT14F; ChimLLT14F; not shown: human IgG4 heavy chain constant region (CH) with hinge mutation S241P; human kappa light chain constant domain (CL)) VH: EVQLVESGGGLVQPGGSLKLSCAASGFTVSSYGMSWVRQIPDKRLELVATINSNGGRTFYPDSVKGRFTISRDNAQNTLYLQMSSLKSEDTAMYYCARDGGYWAHFDYWGQGTTLTVSS VL: DVLMTQTPLSLPVSLGDQASISCRSSQSIVHSNGNTYLEWYLQKPGQSPKLLIYKVSNRFSGVPDRFSGSGSGTDFTLKISRVEAEDLGVYYCFQGSHVPWTFGGGTKLEIKR
